Measured values reported in paper PMC6555819, “Comprehensive study of nuclear receptor DNA binding provides a revised framework for understanding receptor specificity”.
Changes are numbered by the printed parent chain.

B1: NRC3_wobSeed2_DR0_G16C_o1 (dsDNA)
DNA 1: GCCCTAGTTGGTCAACGTCACACACGCTATAGGTACGCGATTGACAGCGTAGAATGAAGG
DNA 2: CCTTCATTCTACGCTGTCAATCGCGTACCTATAGCGTGTGTGACGTTGACCAACTAGGGC
B2: NRC3_random_hg19_78_o1 (dsDNA)
DNA 1: GCTATGACTGGTTACACTGGAAACCTAGAATGAACAGCGATTGACAGCGTAGAATGAAGG
DNA 2: CCTTCATTCTACGCTGTCAATCGCTGTTCATTCTAGGTTTCCAGTGTAACCAGTCATAGC
B3: NRC3_wobSeed49_DR2_A15T_o1 (dsDNA)
DNA 1: GCCAAACTAGGTCATGAGGTCAAAGTCCGCTTCCCGGCGATTGACAGCGTAGAATGAAGG
DNA 2: CCTTCATTCTACGCTGTCAATCGCCGGGAAGCGGACTTTGACCTCATGACCTAGTTTGGC
B4: NRC3_random_hg19_8_o1 (dsDNA)
DNA 1: GCGCTGAAACTGGATCCCTTCCTTACACCTTACACAGCGATTGACAGCGTAGAATGAAGG
DNA 2: CCTTCATTCTACGCTGTCAATCGCTGTGTAAGGTGTAAGGAAGGGATCCAGTTTCAGCGC
B5: NRC3_wobSeed42_DR1_G9T_o1 (dsDNA)
DNA 1: GCTATACATGGTCAAAGGCCAGAGTACGAATGTCGAGCGATTGACAGCGTAGAATGAAGG
DNA 2: CCTTCATTCTACGCTGTCAATCGCTCGACATTCGTACTCTGGCCTTTGACCATGTATAGC
B6: NRC3_wobSeed111_DR4_G11A_o1 (dsDNA)
DNA 1: GCCGAACTAGATCAGAACAGGACAGTGAAGGATGATGCGATTGACAGCGTAGAATGAAGG
DNA 2: CCTTCATTCTACGCTGTCAATCGCATCATCCTTCACTGTCCTGTTCTGATCTAGTTCGGC
B7: NRC3_random_hg19_259_o1 (dsDNA)
DNA 1: GCCCTGAGTCAGTAGAACCAGCTGAGAGATTGGATTGCGATTGACAGCGTAGAATGAAGG
DNA 2: CCTTCATTCTACGCTGTCAATCGCAATCCAATCTCTCAGCTGGTTCTACTGACTCAGGGC
B8: NRC3_wobSeed85_DR3_A16C_o1 (dsDNA)
DNA 1: GCCGTCCAAGGTCAGCGAGGTCAGTGAATGCCGAGTGCGATTGACAGCGTAGAATGAAGG
DNA 2: CCTTCATTCTACGCTGTCAATCGCACTCGGCATTCACTGACCTCGCTGACCTTGGACGGC
B9: NRC3_wobSeed119_DR4_A9T_o1 (dsDNA)
DNA 1: GCGGAACGTGGGCATTCGAGTTGATAGCATGGCGATGCGATTGACAGCGTAGAATGAAGG
DNA 2: CCTTCATTCTACGCTGTCAATCGCATCGCCATGCTATCAACTCGAATGCCCACGTTCCGC
B10: NRC3_wobSeed138_DR5_T12G_o1 (dsDNA)
DNA 1: GCGATACAGGGGCAGCTAGAGGCCAGAGTATGGAAAGCGATTGACAGCGTAGAATGAAGG
DNA 2: CCTTCATTCTACGCTGTCAATCGCTTTCCATACTCTGGCCTCTAGCTGCCCCTGTATCGC
B11: NRC3_wobSeed108_DR4_T23C_o1 (dsDNA)
DNA 1: GCGCGACTGGGGCAAAGCAGGTCACCATAAGGTTGGGCGATTGACAGCGTAGAATGAAGG
DNA 2: CCTTCATTCTACGCTGTCAATCGCCCAACCTTATGGTGACCTGCTTTGCCCCAGTCGCGC
B12: NRC3_wobSeed122_DR5_C24A_o1 (dsDNA)
DNA 1: GCGCTAGTTGGTCAGTAAAAGGTAACACACCGGTCGGCGATTGACAGCGTAGAATGAAGG
DNA 2: CCTTCATTCTACGCTGTCAATCGCCGACCGGTGTGTTACCTTTTACTGACCAACTAGCGC
B13: NRC3_random_hg19_407_o1 (dsDNA)
DNA 1: GCGAGACATGAGATTTGGTTCTAGCTACACTCTTCAGCGATTGACAGCGTAGAATGAAGG
DNA 2: CCTTCATTCTACGCTGTCAATCGCTGAAGAGTGTAGCTAGAACCAAATCTCATGTCTCGC
B14: NRC3_random_hg19_48_o1 (dsDNA)
DNA 1: GCTAGTCCAGCTGGCTGGAGACTCATGGAAGAACAGGCGATTGACAGCGTAGAATGAAGG
DNA 2: CCTTCATTCTACGCTGTCAATCGCCTGTTCTTCCATGAGTCTCCAGCCAGCTGGACTAGC
B15: NRC3_wobSeed15_DR0_C13A_o1 (dsDNA)
DNA 1: GCCGAACTAGGTAAAGGACAGTGAATCTCCGCACGCGCGATTGACAGCGTAGAATGAAGG
DNA 2: CCTTCATTCTACGCTGTCAATCGCGCGTGCGGAGATTCACTGTCCTTTACCTAGTTCGGC
B16: NRC3_wobSeed103_DR4_A16T_o1 (dsDNA)
DNA 1: GCGCATATAGGTAATTCAAGGTGAAAGTCCGATTGTGCGATTGACAGCGTAGAATGAAGG
DNA 2: CCTTCATTCTACGCTGTCAATCGCACAATCGGACTTTCACCTTGAATTACCTATATGCGC
B17: NRC3_wobSeed103_DR4_G21A_o1 (dsDNA)
DNA 1: B16 DNA 1 with T16A, G21A
DNA 2: B16 DNA 2 with C40T, A45T
B18: NRC3_wobSeed72_DR2_G18C_o1 (dsDNA)
DNA 1: GCTCGAGTAGGTTACGGCGGCATTCAGGGATGAAGAGCGATTGACAGCGTAGAATGAAGG
DNA 2: CCTTCATTCTACGCTGTCAATCGCTCTTCATCCCTGAATGCCGCCGTAACCTACTCGAGC
B19: NRC3_wobSeed27_DR1_G18A_o1 (dsDNA)
DNA 1: GCACTCGGAGGACAAAGATCAGAGCTACGCCAGTGAGCGATTGACAGCGTAGAATGAAGG
DNA 2: CCTTCATTCTACGCTGTCAATCGCTCACTGGCGTAGCTCTGATCTTTGTCCTCCGAGTGC
B20: NRC3_random_hg19_166_o1 (dsDNA)
DNA 1: GCAATGACATGATCATAGCTCACTGCAGCCTTGAATGCGATTGACAGCGTAGAATGAAGG
DNA 2: CCTTCATTCTACGCTGTCAATCGCATTCAAGGCTGCAGTGAGCTATGATCATGTCATTGC
B21: NRC3_random_hg19_242_o1 (dsDNA)
DNA 1: GCCAGCAGAGAACCCAGTGGAACATGAGCCTATACAGCGATTGACAGCGTAGAATGAAGG
DNA 2: CCTTCATTCTACGCTGTCAATCGCTGTATAGGCTCATGTTCCACTGGGTTCTCTGCTGGC
B22: NRC3_wobSeed102_DR4_G21A_o1 (dsDNA)
DNA 1: GCCCTAGCAGGCCAATCTGGATCACTCAAGGCTTGAGCGATTGACAGCGTAGAATGAAGG
DNA 2: CCTTCATTCTACGCTGTCAATCGCTCAAGCCTTGAGTGATCCAGATTGGCCTGCTAGGGC
B23: NRC3_wobSeed120_DR4_G20C_o1 (dsDNA)
DNA 1: GCCCGAGTAGGTTACGAGGCGGCATTCAGTGCGAATGCGATTGACAGCGTAGAATGAAGG
DNA 2: CCTTCATTCTACGCTGTCAATCGCATTCGCACTGAATGCCGCCTCGTAACCTACTCGGGC
B24: NRC3_random_hg19_446_o1 (dsDNA)
DNA 1: GCACTGAACAACCTGATCCTGAATGACTACAGGGTAGCGATTGACAGCGTAGAATGAAGG
DNA 2: CCTTCATTCTACGCTGTCAATCGCTACCCTGTAGTCATTCAGGATCAGGTTGTTCAGTGC
B25: NRC3_random_hg19_264_o1 (dsDNA)
DNA 1: GCTCATCAGTCTAATGATGCTGTTGGTCCAGGGAGCGCGATTGACAGCGTAGAATGAAGG
DNA 2: CCTTCATTCTACGCTGTCAATCGCGCTCCCTGGACCAACAGCATCATTAGACTGATGAGC
B26: NRC3_random_hg19_26_o1 (dsDNA)
DNA 1: GCACTCAATACACCAAAGCACATCCTCATCAGACTCGCGATTGACAGCGTAGAATGAAGG
DNA 2: CCTTCATTCTACGCTGTCAATCGCGAGTCTGATGAGGATGTGCTTTGGTGTATTGAGTGC
B27: NRC3_wobSeed17_DR0_G16A_o1 (dsDNA)
DNA 1: GCATATGTAGGTTAGAGTCATTCAGAAAGTAGGGAAGCGATTGACAGCGTAGAATGAAGG
DNA 2: CCTTCATTCTACGCTGTCAATCGCTTCCCTACTTTCTGAATGACTCTAACCTACATATGC
B28: NRC3_wobSeed52_DR2_C21G_o1 (dsDNA)
DNA 1: GCCCTACTGGGCCATCAGGTGATTGATATCAACGTTGCGATTGACAGCGTAGAATGAAGG
DNA 2: CCTTCATTCTACGCTGTCAATCGCAACGTTGATATCAATCACCTGATGGCCCAGTAGGGC
B29: NRC3_random_hg19_82_o1 (dsDNA)
DNA 1: GCCATACAGACTCTAGTCATTTCAAATGTTCTTGCTGCGATTGACAGCGTAGAATGAAGG
DNA 2: CCTTCATTCTACGCTGTCAATCGCAGCAAGAACATTTGAAATGACTAGAGTCTGTATGGC
B30: NRC3_random_hg19_288_o1 (dsDNA)
DNA 1: GCCCTGGTTCAAGCGATTCTCCTGCCTCAGCCTCCTGCGATTGACAGCGTAGAATGAAGG
DNA 2: CCTTCATTCTACGCTGTCAATCGCAGGAGGCTGAGGCAGGAGAATCGCTTGAACCAGGGC
B31: NRC3_random_hg19_98_o1 (dsDNA)
DNA 1: GCGCCAGGCTGGTCTCGACCTCCTGACTTTGTGATCGCGATTGACAGCGTAGAATGAAGG
DNA 2: CCTTCATTCTACGCTGTCAATCGCGATCACAAAGTCAGGAGGTCGAGACCAGCCTGGCGC
B32: NRC3_wobSeed112_DR4_G11C_o1 (dsDNA)
DNA 1: GCTAGCCTAGCTCAGATCGGGCCAGTATACGCTATAGCGATTGACAGCGTAGAATGAAGG
DNA 2: CCTTCATTCTACGCTGTCAATCGCTATAGCGTATACTGGCCCGATCTGAGCTAGGCTAGC
B33: NRC3_wobSeed136_DR5_T12C_o1 (dsDNA)
DNA 1: GCTAGCCTAGGCCATTCAGGGGCCAGTATAGAAAGCGCGATTGACAGCGTAGAATGAAGG
DNA 2: CCTTCATTCTACGCTGTCAATCGCGCTTTCTATACTGGCCCCTGAATGGCCTAGGCTAGC

Molecular target: THRa:RXRa (Homo sapiens, UniProt P10827;P19793 full;full)
Sequence (P10827 other isoform, or with tags, fused parts or gaps, chain 1 of 2): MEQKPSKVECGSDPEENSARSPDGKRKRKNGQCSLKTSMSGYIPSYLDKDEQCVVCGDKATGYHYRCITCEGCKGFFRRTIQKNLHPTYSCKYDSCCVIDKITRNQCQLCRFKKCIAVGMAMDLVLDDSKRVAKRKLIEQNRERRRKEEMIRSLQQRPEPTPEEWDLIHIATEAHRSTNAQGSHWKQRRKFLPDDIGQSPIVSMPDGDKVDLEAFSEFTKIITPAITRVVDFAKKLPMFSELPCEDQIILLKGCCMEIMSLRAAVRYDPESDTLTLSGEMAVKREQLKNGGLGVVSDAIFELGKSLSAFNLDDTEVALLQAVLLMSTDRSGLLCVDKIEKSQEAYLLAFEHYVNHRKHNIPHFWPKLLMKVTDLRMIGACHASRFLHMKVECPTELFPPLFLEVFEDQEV
Sequence (P19793 whole entry, chain 2 of 2): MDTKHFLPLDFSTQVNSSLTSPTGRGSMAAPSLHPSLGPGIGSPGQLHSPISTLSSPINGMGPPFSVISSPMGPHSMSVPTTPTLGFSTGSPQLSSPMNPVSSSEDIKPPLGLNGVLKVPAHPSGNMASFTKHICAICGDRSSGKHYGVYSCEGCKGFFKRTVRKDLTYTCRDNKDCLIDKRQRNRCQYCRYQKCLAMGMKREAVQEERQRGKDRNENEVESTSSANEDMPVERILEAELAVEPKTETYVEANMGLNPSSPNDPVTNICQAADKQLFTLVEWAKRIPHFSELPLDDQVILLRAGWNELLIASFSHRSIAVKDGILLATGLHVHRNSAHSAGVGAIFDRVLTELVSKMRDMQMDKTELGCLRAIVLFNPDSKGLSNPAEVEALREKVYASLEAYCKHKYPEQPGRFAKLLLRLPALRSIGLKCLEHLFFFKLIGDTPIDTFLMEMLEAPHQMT
Assay: no ligand; PBM; 90 nM : 90 nM RXRa; PBS pH 7.4, 2% milk, 0.02% Triton X-100, 1 mM DTT, BSA, 0.4 mg/ml salmon testes DNA
Details: tags: His kept;His cleaved; copies: 1;1; label: surface-attached array probe

Binder	binding signal
B1	0.39 PBM z-score against 500 random probes
B2	0.42 PBM z-score against 500 random probes
B3	4.8 PBM z-score against 500 random probes
B4	-0.12 PBM z-score against 500 random probes
B5	0.08 PBM z-score against 500 random probes
B6	0.34 PBM z-score against 500 random probes
B7	-0.45 PBM z-score against 500 random probes
B8	4.81 PBM z-score against 500 random probes
B9	0.25 PBM z-score against 500 random probes
B10	0.48 PBM z-score against 500 random probes
B11	4.79 PBM z-score against 500 random probes
B12	0.45 PBM z-score against 500 random probes
B13	-0.37 PBM z-score against 500 random probes
B14	-1.43 PBM z-score against 500 random probes
B15	0.15 PBM z-score against 500 random probes
B16	4.81 PBM z-score against 500 random probes
B17	0.11 PBM z-score against 500 random probes

Binder	binding signal
B18	0.41 PBM z-score against 500 random probes
B19	0.36 PBM z-score against 500 random probes
B20	-0.62 PBM z-score against 500 random probes
B21	-0.39 PBM z-score against 500 random probes
B22	0.26 PBM z-score against 500 random probes
B23	-0.27 PBM z-score against 500 random probes
B24	0.09 PBM z-score against 500 random probes
B25	-0.53 PBM z-score against 500 random probes
B26	0.33 PBM z-score against 500 random probes
B27	0.23 PBM z-score against 500 random probes
B28	0.39 PBM z-score against 500 random probes
B29	0.12 PBM z-score against 500 random probes
B30	0.5 PBM z-score against 500 random probes
B31	-0.14 PBM z-score against 500 random probes
B32	-0.54 PBM z-score against 500 random probes
B33	0.47 PBM z-score against 500 random probes
